Results reported in US20110287036A1, “NOVEL CANCER TARGETING THERAPY USING COMPLEX OF SUBTANCE CAPABLE OF BINDING SPECIFICALLY TO CONSTITUENT FACTOR OF CANCER STROMA AND ANTI-TUMOR COMPOUND” (RIKEN, priority 2008, published 2011).

System: PSN1 or SUIT2
Test: In vivo imaging of IRDye800-labeled antibodies in tumor-bearing mice
Design: species or system BALB/c nude mouse
Conditions: imaged 1, 3, 7 and 14 days after administration
Protocol: PSN1 or SUIT2 was transplanted to the back of each BALB/c nude mouse (female, 6-week-old); 10 days after the transplantation, each antibody (labeled with IRDye800 (Li-Cor)) was administered from a tail vein of the mouse. 1 day, 3 days, 7 days, and 14 days after the administration, the antibody distribution was analyzed using the in vivo imaging apparatus OV110 (Olympus).
In the figure, CD20 stands for the antihuman CD20 antibody, EpCAM for the antihuman EpCAM antibody, and Col. 4 for the antimouse type IV collagen antibody.

With “antihuman CD20 antibody: monoclonal antibody against human B cells, does not react with SUIT2; control” the “accumulation in tumor tissue” value (IRDye800-labeled antibody via tail vein 10 days after transplantation) was “accumulated selectively in tumor tissue due to an EPR effect” and the “duration of stay in / disappearance from tumor tissue” value (IRDye800-labeled antibody via tail vein) was “disappeared from the tumor tissue earlier than the antimouse type IV collagen antibody”.
